Consider 1 protein from PMC9659335, “An unexpected role for leucyl aminopeptidase in UV tolerance revealed by a genome-wide fitness assessment in a model cyanobacterium” (Proceedings of the National Academy of Sciences of the …, 2022).

In general, Km refers to the substrate concentration at which the rate is half of its maximum.

Substrate in data set [1]: CC(C)C[C@H](N)C(=O)Nc1ccc([N+](=O)[O-])cc1
The data set can be described thus: purified protein. The class given is biochemical, Synechococcus elongatus. As to conditions: pH 7.5, 50 mM Tris-HCl, 0.2 mM MnCl2, 37 °C, 5 µg/mL enzyme.

Substrate in data set [2]: N[C@@H](CS)C(=O)NCC(=O)O
Briefly: purified protein. The class given is biochemical, Synechococcus elongatus. Particulars: pH 7.5, 50 mM Tris-HCl, 0.2 mM MnCl2, 37 °C, 5 µg/mL enzyme.

B1: SynPCC7942_1190 (LAP, leucyl aminopeptidase) (Synechococcus elongatus PCC 7942 = FACHB-805) (protein)
chain: MTFQAIATHPQDWTGDTLALGLTTAAIGETLSSELQKLDQQWNGVLQELISDSEFKAKLAETTTTRIGGSIRKLILVGLGESPTTEDYRRAAAAVAKQARSFKSQTLAIAFPPSDDPAAIASAIVEGISLALYKDQRFKSEPDTASGPSSIELLGLAGQEAAIARAEQVVAGVELARQLVAAPANVVTPVTMADTAQELAAELGLELEILEADECEKRGMGAFLGVAKASDLPPKFIHLTYRPESTPRRKLAIVGKGLTFDSGGYNIKGAGSGIEMMKTDMGGAAATLGAAKAIGLIKPDVEVHFISAVTENMISGRGMHPGDILTASNGKTIEVNNTDAEGRLTLADALVFADGLGVDAIVDLATLTGACIIALGDDIAGLWSPSDDLAEQLLQAGKAAGEKLWRLPLEEPYLDGLKSPVADYKNTGPRAGGSITAALFLKQFVKHPVWAHLDVAGPVWSDKEKHYNPAGATGYGVRTLVNWVLS
notes: full-length gene in pET-28b(+) (pAM5836), Strep-tag (text: N terminus)
In the case of B1, the values for the Km in the data set “purified protein [1]” and in the data set “purified protein [2]” were 7.44 mM and 1.21 mM, respectively.
